From PMC6546395 (eLife, 2019)

Experiments:
[1] = molecular target: T1, COMA complex (Ctf19/Okp1/Mcm21/Ame1) (S. cerevisiae, UniProt P38313 1-324; P53298 1-406; Q02732 1-369; Q06675 1-368); assay: cross-linking; Sli15-2xStrep-HA-6xHis/Ipl1 with Ame1/Okp1 and Ctf19/Mcm21 assembled on Strep-Tactin agarose (RT, 1 hr; 50 mM NaH2PO4 pH 8.0, 500 mM NaCl, 5% glycerol), eluted with biotin, re-isolated on Ni-NTA beads; BS3 0.25–0.5 mM, 30°C, 30 min; LC-MS/MS, xQuest; conditions: both partners purified
T1 construct: Ame1 (CENP-U ortholog); Okp1 (CENP-Q ortholog); Ctf19 (CENP-P ortholog); open reading frame amplified from yeast genomic DNA; Mcm21 (CENP-O ortholog); The two heterodimers m7 and m12 together; copies: + + +

[2] = molecular target: T1, COMA complex (Ctf19/Okp1/Mcm21/Ame1); assay: pull-down; Sli15-2xStrep-HA-6xHis/Ipl1 immobilised on Strep-Tactin Superflow agarose, 2-fold molar excess of the partners; 50 mM NaH2PO4 pH 8, 120 mM NaCl, 5% glycerol, 4°C, 1 hr; SDS-PAGE and Coomassie; conditions: both partners purified

T1 sequence (P38313 whole entry, chain 1 of 4): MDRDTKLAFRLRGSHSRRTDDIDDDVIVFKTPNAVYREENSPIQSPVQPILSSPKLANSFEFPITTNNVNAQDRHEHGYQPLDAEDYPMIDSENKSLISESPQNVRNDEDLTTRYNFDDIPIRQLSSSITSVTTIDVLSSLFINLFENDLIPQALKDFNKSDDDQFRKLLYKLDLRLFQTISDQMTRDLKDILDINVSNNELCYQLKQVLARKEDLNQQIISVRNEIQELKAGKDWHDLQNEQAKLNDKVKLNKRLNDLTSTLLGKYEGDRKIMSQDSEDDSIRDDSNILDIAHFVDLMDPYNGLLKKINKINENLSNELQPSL
T1 sequence (P53298 whole entry, chain 2 of 4): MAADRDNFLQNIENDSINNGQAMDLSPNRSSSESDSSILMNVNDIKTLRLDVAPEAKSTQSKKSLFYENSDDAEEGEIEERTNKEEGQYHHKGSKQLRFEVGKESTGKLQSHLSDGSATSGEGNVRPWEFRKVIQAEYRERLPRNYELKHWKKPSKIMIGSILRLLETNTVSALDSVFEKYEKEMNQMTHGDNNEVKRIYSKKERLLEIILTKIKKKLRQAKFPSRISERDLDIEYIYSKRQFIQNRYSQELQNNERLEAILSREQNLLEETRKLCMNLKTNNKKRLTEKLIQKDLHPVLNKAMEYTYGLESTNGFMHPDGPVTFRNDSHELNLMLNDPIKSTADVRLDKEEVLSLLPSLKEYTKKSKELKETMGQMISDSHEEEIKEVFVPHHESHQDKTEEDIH
T1 sequence (Q02732 whole entry, chain 3 of 4): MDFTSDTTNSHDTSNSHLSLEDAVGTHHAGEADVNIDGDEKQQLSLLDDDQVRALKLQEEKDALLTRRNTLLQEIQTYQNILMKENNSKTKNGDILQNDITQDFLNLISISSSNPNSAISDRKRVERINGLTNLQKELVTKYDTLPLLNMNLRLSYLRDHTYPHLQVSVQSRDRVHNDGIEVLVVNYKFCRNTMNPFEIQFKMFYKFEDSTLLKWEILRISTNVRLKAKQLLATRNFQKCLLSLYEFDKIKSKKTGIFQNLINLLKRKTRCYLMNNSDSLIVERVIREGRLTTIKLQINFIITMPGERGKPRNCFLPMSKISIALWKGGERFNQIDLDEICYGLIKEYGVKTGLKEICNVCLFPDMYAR
T1 sequence (Q06675 whole entry, chain 4 of 4): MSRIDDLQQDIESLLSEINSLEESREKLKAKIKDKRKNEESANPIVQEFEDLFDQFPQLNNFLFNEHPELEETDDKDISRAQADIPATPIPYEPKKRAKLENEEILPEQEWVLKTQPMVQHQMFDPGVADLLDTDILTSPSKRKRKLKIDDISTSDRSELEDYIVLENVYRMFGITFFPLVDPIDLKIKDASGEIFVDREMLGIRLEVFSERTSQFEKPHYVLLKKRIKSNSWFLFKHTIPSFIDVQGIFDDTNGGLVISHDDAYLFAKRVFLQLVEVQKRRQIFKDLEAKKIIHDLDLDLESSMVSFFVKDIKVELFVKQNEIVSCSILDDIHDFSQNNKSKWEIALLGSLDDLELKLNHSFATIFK

Binder	binding result [1]	binding result [2]
Sli15/Ipl1 core chromosomal passenger complex (complex, S. cerevisiae, Sli15 (INCENP ortholog), wild type; open reading frame amplified from yeast genomic DNA; Ipl1 (Aurora B ortholog); also called Sli15-2xStrep/Ipl1; Sli15-2xStrep-HA-6xHis/Ipl1; source: High Five insect cells (baculovirus), purified (Strep-Tactin Superflow agarose); not shown: 2xStrep, C-terminal, kept; HA, C-terminal, kept; 6xHis, C-terminal, kept) chain 1: MDWAIKAARKKTQRKPGSTRSIIETLDDLNNLTTDAHSEINQRLYESSEWLRNNVYMNTLKYEDKKMEESLISPENTHNKMDVEFPKMKGEYELSNSQNDAAKDVTKTPRNGLHNDKSITPKSLRRKEVTEGMNRFSIHDTNKSPVEPLNSVKVDANESEKSSPWSPYKVEKVLRESSKTSESPINTKRFDNQTWAAKEEMENEPILQALKKAESVKVKPPPNSGIARSQRRSNMFVPLPNKDPLIIQHIPPTKSSGSIPKVRTVKESPIAFKKKSTINSPAIRAVENSDTAGSTKASSVFDRLSSIPTKSFENKISRGNVGHKYSSSSIDLTGSPMKKVSQKFKSINSTDTDMQEALRDIFSVKNKITKNNSPKGKNSRKSSIPRFDKTSLKLTTHKKLAIIAEQKKKSKHSSDVHKTGSRPHSISPTKISVDSSSPSKEVKNYYQSPVRGYLRPTKASISPNKNKNLTTSQTPHRLKIKEKTLRKLSPNIADISKPESRKSKNYRLTNLQLLPPAEAERDDLKKKFDKRLSGIMRSQQEHHRRKQEKQKRMSHLEQDLKKQTSFSNDYKDIRLKESLAPFDNHVRDTINKNTAFSTDNILATINTVDHREIIGNVTPKIASVNDSLPEINTDSEDEASVTLAAWAKSPYLQEQLIRQQDINPQTIFGPIPPLHTDEIFPNPRLNRLKPRQIVPKRS chain 2: MQRNSLVNIKLNANSPSKKTTTRPNTSRINKPWRISHSPQQRNPNSKIPSPVREKLNRLPVNNKKFLDMESSKIPSPIRKATSSKMIHENKKLPKFKSLSLDDFELGKKLGKGKFGKVYCVRHRSTGYICALKVMEKEEIIKYNLQKQFRREVEIQTSLNHPNLTKSYGYFHDEKRVYLLMEYLVNGEMYKLLRLHGPFNDILASDYIYQIANALDYMHKKNIIHRDIKPENILIGFNNVIKLTDFGWSIINPPENRRKTVCGTIDYLSPEMVESREYDHTIDAWALGVLAFELLTGAPPFEEEMKDTTYKRIAALDIKMPSNISQDAQDLILKLLKYDPKDRMRLGDVKMHPWILRNKPFWENKRL	binds	
dephosphorylated Sli15/Ipl1 (complex, S. cerevisiae, basal phosphorylation removed with lambda phosphatase | basal phosphorylation removed with lambda phosphatase, Sli15 (INCENP ortholog); open reading frame amplified from yeast genomic DNA; Ipl1 (Aurora B ortholog); also called Sli15/Ipl1 (dp); not shown: 2xStrep, C-terminal, kept; HA, C-terminal, kept; 6xHis, C-terminal, kept) chain 1: MDWAIKAARKKTQRKPGSTRSIIETLDDLNNLTTDAHSEINQRLYESSEWLRNNVYMNTLKYEDKKMEESLISPENTHNKMDVEFPKMKGEYELSNSQNDAAKDVTKTPRNGLHNDKSITPKSLRRKEVTEGMNRFSIHDTNKSPVEPLNSVKVDANESEKSSPWSPYKVEKVLRESSKTSESPINTKRFDNQTWAAKEEMENEPILQALKKAESVKVKPPPNSGIARSQRRSNMFVPLPNKDPLIIQHIPPTKSSGSIPKVRTVKESPIAFKKKSTINSPAIRAVENSDTAGSTKASSVFDRLSSIPTKSFENKISRGNVGHKYSSSSIDLTGSPMKKVSQKFKSINSTDTDMQEALRDIFSVKNKITKNNSPKGKNSRKSSIPRFDKTSLKLTTHKKLAIIAEQKKKSKHSSDVHKTGSRPHSISPTKISVDSSSPSKEVKNYYQSPVRGYLRPTKASISPNKNKNLTTSQTPHRLKIKEKTLRKLSPNIADISKPESRKSKNYRLTNLQLLPPAEAERDDLKKKFDKRLSGIMRSQQEHHRRKQEKQKRMSHLEQDLKKQTSFSNDYKDIRLKESLAPFDNHVRDTINKNTAFSTDNILATINTVDHREIIGNVTPKIASVNDSLPEINTDSEDEASVTLAAWAKSPYLQEQLIRQQDINPQTIFGPIPPLHTDEIFPNPRLNRLKPRQIVPKRS chain 2: MQRNSLVNIKLNANSPSKKTTTRPNTSRINKPWRISHSPQQRNPNSKIPSPVREKLNRLPVNNKKFLDMESSKIPSPIRKATSSKMIHENKKLPKFKSLSLDDFELGKKLGKGKFGKVYCVRHRSTGYICALKVMEKEEIIKYNLQKQFRREVEIQTSLNHPNLTKSYGYFHDEKRVYLLMEYLVNGEMYKLLRLHGPFNDILASDYIYQIANALDYMHKKNIIHRDIKPENILIGFNNVIKLTDFGWSIINPPENRRKTVCGTIDYLSPEMVESREYDHTIDAWALGVLAFELLTGAPPFEEEMKDTTYKRIAALDIKMPSNISQDAQDLILKLLKYDPKDRMRLGDVKMHPWILRNKPFWENKRL		binds
